Source: patent US20250320281A1 (published 2025)
Positions count from the first letter of the chain named.

B1: 1496_C09 (PG9) (TCN-109) (antibody, V domains shown)
VH: QRLVESGGGVVQPGSSLRLSCAASGFDFSRQGMHWVRQAPGQGLEWVAFIKYDGSEKYHADSVWGRLSISRDNSKDTLYLQMNSLRVEDTATYFCVREAGGPDYRNGYNYYDFYDGYYNYHYMDVWGKGTTVTVSS
VL: QSALTQPASVSGSPGQSITISCNGTSNDVGGYESVSWYQQHPGKAPKVVIYDVSKRPSGVSNRFSGSKSGNTASLTISGLQAEDEGDYYCKSLTSTRRRVFGTGTKLTVLG
B2: 1460_G14 (PGG14) (antibody, human IgG1, kappa, V domains shown)
VH: QVLLVQSGTEVKKPGSSVKVSCQASGGAFSSYAFSWVRQAPGQGLEWMGMITPVFGETKYAPRFQGRLTLTAEESLSTTYMELRSLTSDDTAFYYCTRDRRVVPMATDNWLDPWGQGTLVTVSS
VL: DIQLTQSPSSLSASVGDRVTVTCRASQTIHTYLNWYQQIPGKAPKLLIYGASTLQSGVPSRFSGSGSGTDFTLTINSLQPEDFATYYCQQSYSTPRTFGQGTRLDIKR
B3: 1460_G14 (PGG14) (antibody, human IgG1, kappa, V domains shown)
VH: B2 VH
VL: B2 VL
B4: 1456_P20 (PG20) (antibody, human IgG1, kappa, V domains shown)
VH: QVRLVQSGPEVKKPGSSVTVSCQASGGTFSSYAFTWVRQAPGQGLEWLGMVTPIFGEAKYSQRFEGRVTITADESTSTTSIELRGLTSEDTAIYYCARDRRAVPIATDNWLDPWGQGTLVTVSS
VL: B2 VL with T20S, V21I, H30N, T31N, I39T, T53N, S56N, N76S, Y92F
B5: 1443_C16 (PG16) (TCN-116) (antibody, V domains shown)
VH: QEQLVESGGGVVQPGGSLRLSCLASGFTFHKYGMHWVRQAPGKGLEWVALISDDGMRKYHSDSMWGRVTISRDNSKNTLYLQFSSLKVEDTAMFFCAREAGGPIWHDDVKYYDFNDGYYNYHYMDVWGKGTTVTVSS
VL: QSALTQPASVSGSPGQTITISCNGTSSDVGGFDSVSWYQQSPGKAPKVMVFDVSHRPSGISNRFSGSKSGNTASLTISGLHIEDEGDYFCSSLTDRSHRIFGGGTKVTVLG
B6: 1495_C14 (PGC14) (antibody, human IgG1, lambda, V domains shown)
VH: DGHLVQSGVEVKKTGATVKISCKVSGYSFIDYYLHWVQRAPGKGLEWVGLIDPENGEARYAEKFQGRVTIIADTSIDTGYMEMRSLKSEDTAVYFCAAGAVGADSGSWFDPWGQGTLVTVSS
VL: SYELTQPPSVSVSPGQTASITCSGSKLGDKYVSWYQLRPGQSPILVMYENDRRPSGIPERFSGSNSGDTATLTISGTQALDEADFYCQAWETTTTTFVFFGGGTQLTVLG

Assays:
Assay in all cases: cell-based or functional assay
[1] = target: HIV-1 APV-17 Env (pseudovirus) (HIV-1 isolate APV-17)
[2] = target: HIV-1 93UG077 Env (pseudovirus) (HIV-1 isolate 93UG077)
[3] = target: HIV-1 APV-13 Env (pseudovirus) (HIV-1 isolate APV-13)
[4] = target: HIV-1 92BR020 Env (pseudovirus) (HIV-1 isolate 92BR020)
[5] = target: HIV-1 92RW020 Env (pseudovirus) (HIV-1 isolate 92RW020)
[6] = target: HIV-1 IAVI-C18 Env (pseudovirus) (HIV-1 isolate IAVI-C18)
[7] = target: HIV-1 CMU02 Env (pseudovirus) (HIV-1 isolate CMU02)
[8] = target: HIV-1 APV-6 Env (pseudovirus) (HIV-1 isolate APV-6)
[9] = target: HIV-1 IAVI-C3 Env (pseudovirus) (HIV-1 isolate IAVI-C3)
[10] = target: HIV-1 92UG005 Env (pseudovirus) (HIV-1 isolate 92UG005)
[11] = target: HIV-1 94UG103 Env (pseudovirus) (HIV-1 isolate 94UG103)
[12] = target: HIV-1 92UG024 Env (pseudovirus) (HIV-1 isolate 92UG024)
[13] = target: HIV-1 92TH021 Env (pseudovirus) (HIV-1 isolate 92TH021)
[14] = target: HIV-1 93IN905 Env (pseudovirus) (HIV-1 isolate 93IN905)
[15] = target: HIV-1 IAVI-C22 Env (pseudovirus) (HIV-1 isolate IAVI-C22)
[16] = target: HIV-1 94UG103 Env on pseudotyped virus (HIV-1 isolate 94UG103)
[17] = target: HIV-1 93IN905 Env on pseudotyped virus (HIV-1 isolate 93IN905)
[18] = target: HIV-1 NL43 Env on pseudotyped virus (HIV-1 NL43)
[19] = target: HIV-1 92BR020 Env on pseudotyped virus (HIV-1 isolate 92BR020)
[20] = target: HIV-1 IAVI_C22 Env on pseudotyped virus (HIV-1 isolate IAVI_C22)
[21] = target: HIV-1 92TH021 Env on pseudotyped virus (HIV-1 isolate 92TH021)
[22] = target: HIV-1 SF162 Env on pseudotyped virus (HIV-1 isolate SF162)

Binder	IC50 (µg/mL), pseudovirus neutralization [1] [µg/mL]	IC50 (µg/mL), pseudovirus neutralization [2] [µg/mL]	IC50 (µg/mL), pseudovirus neutralization [3] [µg/mL]	IC50 (µg/mL), pseudovirus neutralization [4] [µg/mL]	IC50 (µg/mL), pseudovirus neutralization [5] [µg/mL]	IC50 (µg/mL), pseudovirus neutralization [6] [µg/mL]	IC50 (µg/mL), pseudovirus neutralization [7] [µg/mL]	IC50 (µg/mL), pseudovirus neutralization [8] [µg/mL]	IC50 (µg/mL), pseudovirus neutralization [9] [µg/mL]	IC50 (µg/mL), pseudovirus neutralization [10] [µg/mL]	IC50 (µg/mL), pseudovirus neutralization [11] [µg/mL]	IC50 (µg/mL), pseudovirus neutralization [12] [µg/mL]	IC50 (µg/mL), pseudovirus neutralization [13] [µg/mL]	IC50 (µg/mL), pseudovirus neutralization [14] [µg/mL]	IC50 (µg/mL), pseudovirus neutralization [15] [µg/mL]	other results
B1	26.4	> 50	> 50	> 50	0.06	0.05	> 50	0.09	12.9	> 50	0.17					
B2	> 50	> 50	> 50	> 50	> 50	> 50	> 50	> 50	> 50	> 50	> 50	> 50	> 50	> 50	> 50	
B3																Neutralizing Antibody Assay: IC50; Virus/Ab Incubation 1 hour [16]: > 50 µg/mL; Neutralizing Antibody Assay: IC50; Virus/Ab Incubation 18 hour [16]: > 50 µg/mL; Neutralizing Antibody Assay: IC50; Virus/Ab Incubation 1 hour [17]: > 50 µg/mL; Neutralizing Antibody Assay: IC50; Virus/Ab Incubation 18 hour [17]: 3.17 µg/mL; Neutralizing Antibody Assay: IC50; Virus/Ab Incubation 1 hour [18]: 0.17 µg/mL; Neutralizing Antibody Assay: IC50; Virus/Ab Incubation 18 hour [18]: 0.05 µg/mL; Neutralizing Antibody Assay: IC50; Virus/Ab Incubation 1 hour [19]: > 50 µg/mL; Neutralizing Antibody Assay: IC50; Virus/Ab Incubation 18 hour [19]: > 50 µg/mL; Neutralizing Antibody Assay: IC50; Virus/Ab Incubation 1 hour [20]: > 50 µg/mL; Neutralizing Antibody Assay: IC50; Virus/Ab Incubation 18 hour [20]: > 50 µg/mL; Neutralizing Antibody Assay: IC50; Virus/Ab Incubation 1 hour [21]: > 50 µg/mL; Neutralizing Antibody Assay: IC50; Virus/Ab Incubation 18 hour [21]: > 50 µg/mL; Neutralizing Antibody Assay: IC50; Virus/Ab Incubation 1 hour [22]: 0.179 µg/mL; Neutralizing Antibody Assay: IC50; Virus/Ab Incubation 18 hour [22]: 0.0573 µg/mL
B4	> 50	> 50	> 50	> 50	50	> 50	> 50	25.8	> 50	> 50	> 50	> 50	> 50	> 50	> 50	
B5	> 50	> 50	> 50	> 50	0.004	0.007	> 50	0.08	14.8	> 50	0.008	> 50	0.13	0.1	0.069	
B6	> 50	> 50	> 50	0.64	28.6	> 50	> 50	7.41	9.5	> 50	> 50	> 50	> 50	> 50	> 50	
